Test [1] deals with HOPS (homotypic fusion and vacuole protein sorting complex) (S. cerevisiae, UniProt P12868;Q03308;P27801;P20795;Q07468;P38959). The test is described as follows: liposome floatation.
Test [2] deals with phospho-HOPS (HOPS phosphorylated by the vacuolar kinase Yck3p) (S. cerevisiae, UniProt P12868;Q03308;P27801;P20795;Q07468;P38959). In words: liposome floatation.

B1: Ypt7p:GTP (vacuolar Rab-family GTPase Ypt7p in its GTP-bound state) (natural protein)
chain: MSSRKKNILKVIILGDSGVGKTSLMHRYVNDKYSQQYKATIGADFLTKEVTVDGDKVATMQVWDTAGQERFQSLGVAFYRGADCCVLVYDVTNASSFENIKSWRDEFLVHANVNSPETFPFVILGNKIDAEESKKIVSEKSAQELAKSLGDIPLFLTSAKNAINVDTAFEEIARSALQQNQADTEAFEDDYNDAINIRLDGENNSCSC
For the molecule B1, the binding result in test [1] and in test [2] was “binds” each time.

The values above are taken from PMC4294677 (Molecular Biology of the Cell, 2015).
